What was measured:
Details in all cases: both partners purified
[1] = target: T1, TBC1D23 C-terminal domain (mouse, UniProt Q8K0F1 559-684); assay: ITC; peptide (0.8 to 5 mM) titrated into 100 μM TBC1D23 C-terminal domain, 20°C, 100 mM NaCl, 100 mM tris pH 7.4, 1 mM TCEP, Nano ITC
T1 construct: TBC1D23, mouse, UniProt Q8K0F1, C-terminal domain ending with VLDALES at residue 684; used for ITC and for the 3.3 Å crystals; also called the C-terminal domain; TBC1D23 full-length C-terminal domain; source: E. coli BL21 plyS, purified (glutathione-Sepharose, GST cleaved with thrombin, Superdex 200)

[2] = target: T2, TBC1D23 C-terminal domain I675W (mouse, UniProt Q8K0F1 559-677, I675W); assay: as above
T2 construct: TBC1D23, mouse, UniProt Q8K0F1, C-terminal domain (limits as m7, in data S3); source: E. coli BL21 plyS, purified (glutathione-Sepharose, GST cleaved with thrombin, Superdex 200)

[3] = target: T3, TBC1D23 C-terminal domain K672A (mouse, UniProt Q8K0F1 559-677, K672A); assay: as above
T3 construct: TBC1D23, mouse, UniProt Q8K0F1, C-terminal domain (limits as m7, in data S3); source: E. coli BL21 plyS, purified (glutathione-Sepharose, GST cleaved with thrombin, Superdex 200)

[4] = target: T4, Mouse TBC1D23 (559-684), C-terminal domain (mouse, UniProt Q8K0F1 559-684); assay: ITC; peptide (0.8 to 5 mM) titrated into 100 uM TBC1D23 C-terminal domain, 20 injections of 2.4 ul; 20°C; 100 mM NaCl, 100 mM tris pH 7.4, 1 mM TCEP; mean of three runs
T4 construct: TBC1D23, mouse, UniProt Q8K0F1 (684 residues), C-terminal domain, residues 559-684; also called TBC1D23 C-terminal domain; TBC1D23 full length C-terminal domain; source: E. coli BL21 plyS, purified (glutathione-Sepharose, thrombin cleavage, Superdex 200 gel filtration)
T4 sequence (Q8K0F1 559-684): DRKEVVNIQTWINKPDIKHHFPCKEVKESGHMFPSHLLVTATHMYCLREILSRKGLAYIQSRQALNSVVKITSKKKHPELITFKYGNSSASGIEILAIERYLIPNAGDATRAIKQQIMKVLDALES

T1 sequence (Q8K0F1 559-684): as above
T2 sequence (Q8K0F1 559-677 I675W): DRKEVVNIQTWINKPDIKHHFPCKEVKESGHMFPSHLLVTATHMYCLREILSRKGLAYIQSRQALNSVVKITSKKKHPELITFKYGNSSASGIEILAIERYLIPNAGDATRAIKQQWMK
T3 sequence (Q8K0F1 559-677 K672A): as the sequence (Q8K0F1 559-677 I675W) above, with K114A, W117I counted along it

Binder | Kd [1] [µM] | Kd [4] [µM] | further results
DDNTLYHRGFTED (peptide, UniProt O14662 209-221, looked up, syntaxin-16, human, residues 209 to 221, beginning 209DDNTLY (T212, L213, Y214, R216); also called syntaxin-16 peptide; wild type; source: peptide) [syntaxin-16 (209–221) peptide] | ~1.4 |  | stoichiometry N [1]: 1; Kd [2]: > 300 µM; Kd [3]: ~30 µM
DDNTFYHRGFTED (syntaxin-16, human, residues 209-221 with L213F) [syntaxin-16 peptide L213F] |  | 150 | 
DDNTLWHRGFTED (syntaxin-16, human, residues 209-221 with Y214W) |  | 5.6 | 
DDNTLFHRGFTED (syntaxin-16, human, residues 209-221 with Y214F) |  | 15.5 | 

Continued, in another order:

Kd [1] [µM] | Kd [4] [µM] | Binder | further results
~15 |  | DDNTLFHRGFTED (peptide, UniProt O14662 209-221, looked up, syntaxin-16, human, peptide 209 to 221 as m28; source: peptide) | 
~7 |  | DDNTLWHRGFTED (peptide, UniProt O14662 209-221, looked up, syntaxin-16, human, peptide 209 to 221 as m28; source: peptide) | 
~30 |  | DDNSLYHRGFTED (peptide, UniProt O14662 209-221, looked up, syntaxin-16, human, peptide 209 to 221 as m28; source: peptide) | 
 | > 200 | DDNTAYHRGFTED (syntaxin-16, human, residues 209-221 with L213A) [syntaxin-16 peptide L213A] | 
 | 30.1 | DDNSLYHRGFTED (syntaxin-16, human, residues 209-221 with T212S) | 
